# Measurements as given in the DeepSol protein solubility set.
# Assay: soluble on expression in E. coli; label from the status in PepcDB or PDB records
row,Sequence,soluble on expression in E. coli
1,VTLLEQNPRWRLVPRGQAVNLRCILKNSQYPWMSWYQQDLQKQLQWLFTLRSPGDKEVKSLPGADYLATRVTDTELRLQVANMSQGRTLYCTCSAAPDWGASAETLYFGSGTRLTVL,soluble
2,VTLNTIALELVPPNLEGGKERAIEDARKVVQYSAASGLDGRIRHVMMPGMIAEDDDRPIPMQPKLDVLDFWSIIKPELAGVHGLCTQVTAFMDEPSLHRRLVDLSDAGMEGIVFVGVPRTMQDGEGSGVAPTDALSLYRQLVANRGVIVIPTRDGEQGRLNFKCSRGATYGMTQLLYSDAIVGFLREFARTTEHRPEILLSFGFVPKVETRIGLINWLIQDPGNAAVADEQAFVQKLAGSEPARRRRLMVDLYKRVLDGVADLGFPLSIHLEATYGVSAAAFETFAEMLAYWSPAEPGKPD,not soluble
3,VVNKKIAYLGDEKPITIWTSLDNVTVIQLEKDETISYITTGFNKGWSIVPNSNHIFIQPKSVKSNLMFEKEAVNFALMTRDYQEFLKTKKLIVDAPDPKELEEQKKALEKEKEAKEQAQKAQKDKREKRKEERAKNRANLENLTNAMSNPQNLSNNKNLSEFIKQQRENELDQMERLEDMQEQAQANALKQIEELNKKQAEETIKQRAKDKINIKTDKPQKSPEDNSIELSPSDSAWRTNLVVRTNKALYQFILRIAQKDNFASAYLTVKLEYPQRHEVSSVIEEELKKREEAKRQKELIKQENLNTTAYINRVMMASNEQIINKEKIREEKQKIILDQAKALETQYVHNALKRNPVPRNYNYYQAPEKRSKHIMPSEIFDDGTFTYFGFKNITLQPAIFVVQPDGKLSMTDAAIDPNMTNSGLRWYRVNEIAEKFKLIKDKALVTVINKG,not soluble
4,WYKDRGVYHWLSSGQEGTDIPYLGSSVFCSELYEKQMELIRLQHQKLHETEAKLDARVTYMNQWVHQVKTPLSVINLIIQEEDEPVFEQIKKEVRQIEFGLETLLYSSRLDLFERDFKIEAVSLSELLQSVIQSYKRFFIQYRVYPKMNVCDDHQIYTDAKWLKFAIGQVVTNAVKYSAGKSDRLELNVFCDEDRTVLEVKDYGVGIPSQDIKRVFDPYYTGENGRRFQESTGIGLHLVKEITDKLNHTVDISSSPGEGTSVRFSFLTK,not soluble
5,YDRRVHRFRKNWERIIPTHSKIQYAGNMGLLSFGTGWDYGKRNQWETDLLLGFIPKYSSKKAKVTMTLKQNYMPWSINLGKGFSTEPLSCGLYLNTVFGNQFWVSEPERYPKGYYGFSSKVRIHVFMGQRLTYDIDPNRRFLAKSVTFFYEISTCDLYLISGVTNSYLRPRDYLSLSFGLKFQWL,not soluble
6,YFSAICQARKNVYIETPYFIPDESLLKAIKSAALSGVDVRIIFPKIADHKIVNIASYSYFEEILRAGGKVYLYNKGFIHSKVVIIDDKIASAGTANMDLRSFMLNFEVNAFIYDEEVIRVMTDDFFEDLSYCEELNLEVFKNRNIIQKIKESVARLFSPIL,soluble
7,YIWIEHRTIHQHVDESQSSLHHTEKQIQTFITQHNNSFQELDLTNHHDVTATKRELLKLIHQQPATLYYELSGPNQFITNNYEHLNTKNMYLFSTHQLKFNNSTYMLKIYMANTPRLSEIKKDSRQFALIVDQYDNILYANDDRFTIGEKYRPQQFGFMNESVKLNHADHRLIIYKDIHENIED,not soluble
8,YMYKKYDILKGDKSERVLDRRFITNLCMNGVPMGLQYSITAIGSTILQAAVNTLGSTYVAAMTAGSKMFNFTCCPFDALGSTMATYAGQNVGAAKIKRLGQGVR,not soluble
9,YNVLENEELRFQLTIQKEQIEFQRNKYEQLGAAYKNIRSFMHDTKKHLFYIENCVTEKKYDDIIPYSKEIMHDLESRYCTINTGNLVIDAFVSNLLLQTKAQGITLHTNLKFDKATIPVNDYHLTIILGNLLDNALNACRGQIGANIKVAVRTVDGTFTIHVANTYVIADPDKAPDDFEKIDFIHGYGLKNVKDSAEACGGFCVIHHENDVYSATVIIPILNP,not soluble
10,YRQSQSRAARLRLLVDTGQELIQLPPEAMRKCVLQRACAFVAMDHGLLLEWGADNGVQTTARHGSKERLSTLETTADPLAIGPQWLERPGTHLPCVLLLPLRGADEGSFGTLVLANSVAISAPDGEDIESLQLLATLLAAHLENNRLLEALVARDRT,soluble
11,YTDYEERRLIHEVPIIVPRGTGKTTLGSAIAEVGQIIDGEWGADIQLLAYSREQAGYLFNASRAMLSNEESLLHYMREADILRSTKQGILYETTNSLMSIKTSDYESLDGTNAHYNIFDEVHTYDDDFIKVVNDGSSRKRKNWITWYISTNGTKRDKLFDKYYNIWVDILDDKIINDSVMPWIYQLDDVSEIHDPDMWQKAMPLLGITTEKETIARDIEMSKNDPAQQAELMAKTFNLPVNNYLAYFSNEECKGWSDKFDESLFVGDDERNARCVIGIDLSDVNDICSISFMVVRGEERHYLNKKFMPRHTIETLPKELRDKYTEWELSGMLHVHELDYNDQAYIFEELRQFMSDNRILPVAVGYDRYNARELIRLFNDYYGDICHDIPQTVKSLSNPLKVYKEKAKMGKIIFDDPVATWNHANVRVKIDANNNIFPNKEKAKEKIDVFASQLDAFICYENFKEDLSYYFD,not soluble
